Data as given in paper PMC6536551, “The viral protein corona directs viral pathogenesis and amyloid aggregation” (Nature Communications, 2019).

Biological target: the molecule itself
Experiment: thioflavin-T fluorescence

B1: NNFGAIL peptide (model amyloidogenic peptide derived from islet amyloid polypeptide, IAPP) (peptide)
peptide: NNFGAIL
notes: […]; text and methods print NNFGAIL; source: synthetic peptide (Pepscan)
- binding result: binds
